Test results taken from patent US20260234242A1 (HAINAN SIMCERE ZAIMING PHARMACEUTICAL, published 2026).
Like-named read-outs stand apart in the source and are kept apart here.

Legend:
[1] = biological target: T1, human CDH6 on tumor cells (OVCAR3 cells, PA-1 cells) (human, UniProt P55285 54-790); test: FACS, OVCAR3 cells
T1 sequence: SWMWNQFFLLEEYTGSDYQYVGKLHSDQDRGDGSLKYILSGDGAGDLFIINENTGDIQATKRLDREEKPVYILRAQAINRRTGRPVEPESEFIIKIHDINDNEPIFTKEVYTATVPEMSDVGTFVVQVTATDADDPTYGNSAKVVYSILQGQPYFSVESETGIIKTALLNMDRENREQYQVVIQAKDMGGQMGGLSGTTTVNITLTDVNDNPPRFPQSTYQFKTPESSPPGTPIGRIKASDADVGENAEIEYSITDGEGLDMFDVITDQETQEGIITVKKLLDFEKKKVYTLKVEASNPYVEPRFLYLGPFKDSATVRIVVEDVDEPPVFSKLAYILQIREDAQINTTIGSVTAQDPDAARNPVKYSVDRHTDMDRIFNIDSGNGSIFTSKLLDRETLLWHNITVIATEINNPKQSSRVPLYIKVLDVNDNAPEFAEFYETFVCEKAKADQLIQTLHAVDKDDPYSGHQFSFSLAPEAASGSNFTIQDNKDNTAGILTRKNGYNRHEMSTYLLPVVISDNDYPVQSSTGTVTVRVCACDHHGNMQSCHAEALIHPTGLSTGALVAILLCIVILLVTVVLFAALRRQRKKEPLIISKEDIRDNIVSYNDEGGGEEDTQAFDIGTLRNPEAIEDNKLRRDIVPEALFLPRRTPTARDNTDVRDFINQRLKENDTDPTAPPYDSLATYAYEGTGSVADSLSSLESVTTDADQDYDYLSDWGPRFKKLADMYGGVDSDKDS
Description: (§1) OVCAR3 cells with high expression of CDH6 and PA-1 cells with moderate expression of CDH6 were used to detect the binding activity of the antibodies to the cells. […] The cells were washed once with PBS, counted, resuspended to 2×10⁶ cells/mL in an FACS buffer (PBS+2% FBS), and then added to a 96-well plate at 50 μL/well. The chimeric antibodies were diluted with FACS buffer (PBS+2% FBS) and added to the 96-well plate at 50 μL/well, and the plate was incubated at 4° C. for 1 h. […] The dilution was added to the 96-well plate at 50 μL/well, and the plate was incubated at 4° C. for 1 h. After the plates were centrifuged and washed 2 times with PBS, the cells were resuspended in an FACS buffer. The mean fluorescence intensity (MFI) was measured using FACS Canton II (BD). Analysis was performed by the GraphPad Prism software, data were fitted, and EC50 values were calculated. The chimeric antibodies tested had strong binding to both OVCAR3 cells and PA-1 cells.
(§2) According to the above sequences, heavy chain (HC) and light chain (LC) plasmids were constructed (the nucleic acid sequences encoding the VH and VL of the antibodies were recombined into an expression vector carrying a signal peptide (SEQ ID NO: 132, […]) and a heavy chain constant region/light chain constant region sequence to obtain recombinant plasmids expressing VH-CH1-Fc/VL-CL). According to the expression and purification methods in Example 2, the hCDH6-1 humanized antibodies were obtained, and the binding activity of the humanized antibodies was detected by ELISA and FACS (see 2.2 and 2.3 for the method).

[2] = biological target: T2, his-tagged human CDH6 extracellular region protein (hCDH6 ECD-his) (human, UniProt P55285 19-615); test: ELISA, coated antigen
T2 construct: also called Human CDH6-his; hCDH6-his; not shown: his tag
T2 sequence: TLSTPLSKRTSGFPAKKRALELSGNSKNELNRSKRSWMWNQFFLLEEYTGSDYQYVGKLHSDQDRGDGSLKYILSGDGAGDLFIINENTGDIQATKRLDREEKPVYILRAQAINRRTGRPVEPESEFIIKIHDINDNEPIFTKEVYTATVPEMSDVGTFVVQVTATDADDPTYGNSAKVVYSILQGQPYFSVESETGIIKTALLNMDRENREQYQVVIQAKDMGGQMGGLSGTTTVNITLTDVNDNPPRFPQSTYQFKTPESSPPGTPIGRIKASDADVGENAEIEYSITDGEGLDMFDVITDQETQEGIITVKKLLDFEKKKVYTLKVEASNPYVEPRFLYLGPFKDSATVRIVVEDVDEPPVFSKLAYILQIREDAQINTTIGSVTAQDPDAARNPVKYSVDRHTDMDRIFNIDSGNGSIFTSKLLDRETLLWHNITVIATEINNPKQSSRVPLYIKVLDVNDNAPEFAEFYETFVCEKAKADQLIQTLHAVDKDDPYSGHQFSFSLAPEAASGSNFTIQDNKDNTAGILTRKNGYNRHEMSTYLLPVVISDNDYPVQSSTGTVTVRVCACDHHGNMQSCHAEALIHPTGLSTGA

[3] = biological target: T2, his-tagged human CDH6 extracellular …; test: SPR Biacore, antibody captured on Protein A
Description: (§3) The affinity of the antibody for the antigen was determined by a multi-cycle kinetic method using a BIAcore 8K instrument. In each cycle, the antibody to be tested was captured using a Protein A chip (purchased from GE, Cat. No. 29-1275-56), and then the antigen human CDH6 protein (hCDH6-his, conventionally synthesized) was injected. The association and dissociation processes of the antibody with the antigen protein were recorded, and finally, the chip was regenerated using Glycine pH 1.5, wherein the mobile phase was HBS-EP+ (10 mM HEPES, 150 mM NaCl, 3 mM EDTA, 0.05% surfactant P20, and 1 mM Ca), the flow rate was 30 μL/min, the association time was 240 s, the dissociation time was 300 s, the regeneration time was 30 s, the detection temperature was 25° C., and the antigen concentration was 31.25-1000 nM. The data were analyzed using Biacore 8K analysis software (version No. 2.0) based on the 1:1 binding model to fit the antibody-antigen binding kinetic parameters, including the association rate constant ka, the dissociation rate constant kd, and the equilibrium dissociation constant KD. The affinity values of the control antibody DS-H01L02 were undetectable. Antibodies not shown in the table had undetectable affinity values.
Four hCDH6-1 humanized antibodies with fewer back mutations were selected, and the affinity for human CDH6 protein was further confirmed using Biacore.

[4] = biological target: T1, human CDH6 on tumor cells (OVCAR3 …); test: FACS, OVCAR3 cells; remark: listed apart in the source
Description: as §1
as §2, with “VH—CH1-Fc/VL-CL).” for “VH-CH1-Fc/VL-CL).”, “hCDH6-6” for “hCDH6-1”

[5] = biological target: T2, his-tagged human CDH6 extracellular …; test: SPR Biacore, antibody captured on Protein A; remark: listed apart in the source
Description: as §3
Four hCDH6-6 humanized antibodies with fewer back mutations were selected, and the affinity for human CDH6 protein was further confirmed using Biacore.

[6] = biological target: T2, his-tagged human CDH6 extracellular …; test: ELISA, coated antigen; remark: listed apart in the source
Description: Human CDH6 protein (hCDH6 ECD-his, conventionally synthesized), monkey CDH6 protein (cynoCDH6 ECD-his, conventionally synthesized; the cynoCDH6 ECD sequence was derived from Uniprot #A0A2K5TW62 (19-615)), and murine CDH6 protein (mCDH6 ECD-his, conventionally synthesized; the mCDH6 ECD sequence was derived from Uniprot #P97326 (19-615)) were diluted with PBS to a final concentration of 1 μg/mL, and added to a 96-well ELISA plate at 100 μL/well. The plate was incubated at 4° C. overnight. The next day, the plate was washed 3 times with a plate washing solution (PBS+0.01% (v/v) Tween 20), and a blocking buffer (PBS+0.01% (v/v) Tween 20+2% (w/w) BSA) was added for blocking at room temperature for 2 h. The blocking buffer was discarded, and the plate was washed 3 times. The chimeric antibodies were diluted with 1% BSA+PBS (purchased from Cytiva, Cat. No. SH30264.01) and added to the 96-well plate at 50 μL/well. After incubation at 37° C. for 2 h, the plate was washed 3 times with a plate washing solution. […] The plate was incubated at 37° C. for 1 h and then washed 5 times with a plate washing solution. A TMB substrate (purchased from Seracare, Cat. No. 5120-0077) was added at 50 μL/well and incubated at room temperature for 10 min, then a stop solution (1.0 N HCl) was added at 50 μL/well. OD450 nm values were read using a microplate reader (Biotek). Analysis was performed by the GraphPad Prism software, data were fitted, and EC50 values were calculated. The chimeric antibodies tested all had strong binding to the human CDH6 protein, the monkey CDH6 protein, and the murine CDH6 protein.
According to the above sequences, heavy chain (HC) and light chain (LC) plasmids were constructed (the nucleic acid sequences encoding the VH and VL of the antibodies were recombined into an expression vector carrying a signal peptide (SEQ ID NO: 132, […]) and a heavy chain constant region/light chain constant region sequence to obtain recombinant plasmids expressing VH—CH1-Fc/VL-CL).

B1: hCDH6-1-H1L1 (antibody, V domains shown)
VH: EVQLVQSGAEVKKPGSSVKVSCKASGYTFSNYWMHWVRQAPGQGLEWMGDIDPSHSETHYTQKFKDRVTITVDKSTSTAYMELSSLRSEDTAVYYCARGDLGRFDYWGQGTTVTVSS
VL: DIVMTQSPDSLAVSLGERATINCRASESVSIHGTHLMHWYQQKPGQPPKLLIYAASNLESGVPDRFSGSGSETDFTLTISSLQAEDVAVYYCQQSFEDPWTFGGGTKVEIK
notes: Humanized
[1]
  EC50: 0.166 nM
  Max MFI: 14400 MFI
[2]
  EC50: 0.025 nM
  Max OD450: 2.8 OD450
[3]
  Kd: 21.7 nM
  koff: 0.00456 s⁻¹
  kon: 210000 M⁻¹ s⁻¹

B2: hCDH6-1-H1L3 (antibody, V domains shown)
VH: EVQLVQSGAEVKKPGSSVKVSCKASGYTFSNYWMHWVRQAPGQGLEWMGDIDPSHSETHYTQKFKDRVTITVDKSTSTAYMELSSLRSEDTAVYYCARGDLGRFDYWGQGTTVTVSS
VL: DIQMTQSPSSLSASVGDRVTITCRASESVSIHGTHLMHWYQQKPGKPPKLLIYAASNLESGVPSRFSGSGSETDFTFTISSLQPEDIATYYCQQSFEDPWTFGGGTKVEIK
notes: Humanized
[1]
  EC50: 0.175 nM
  Max MFI: 14500 MFI
[2]
  EC50: 0.029 nM
  Max OD450: 2.67 OD450
[3]
  Kd: 18.9 nM
  koff: 0.00824 s⁻¹
  kon: 435000 M⁻¹ s⁻¹

B3: hCDH6-1-H1L2 (antibody, V domains shown)
VH: EVQLVQSGAEVKKPGSSVKVSCKASGYTFSNYWMHWVRQAPGQGLEWMGDIDPSHSETHYTQKFKDRVTITVDKSTSTAYMELSSLRSEDTAVYYCARGDLGRFDYWGQGTTVTVSS
VL: DIVMTQSPDSLAVSLGERATINCRASESVSIHGTHLMHWYQQKSGQPPKLLIYAASNLESGVPDRFSGSGSETDFTLTISSLQAEDVAVYYCQQSFEDPWTFGGGTKVEIK
notes: Humanized
[1]
  EC50: 0.177 nM
  Max MFI: 14500 MFI
[2]
  EC50: 0.027 nM
  Max OD450: 2.75 OD450
[3]
  Kd: 21.5 nM
  koff: 0.00422 s⁻¹
  kon: 196000 M⁻¹ s⁻¹

B4: hCDH6-1-H4L3 (antibody, V domains shown)
VH: EVQLVQSGAEVKKPGSSVKVSCKASGYTFTNYWMHWVRQRPGQGLEWMGDIDPSHSETHYTQKFKDRVTITVDKSTSTAYMELSSLRSEDTAVYYCARGDLGRFDYWGQGTTVTVSS
VL: DIQMTQSPSSLSASVGDRVTITCRASESVSIHGTHLMHWYQQKPGKPPKLLIYAASNLESGVPSRFSGSGSETDFTFTISSLQPEDIATYYCQQSFEDPWTFGGGTKVEIK
notes: Humanized
[1]
  EC50: 0.162 nM
  Max MFI: 15100 MFI
[2]
  EC50: 0.029 nM
  Max OD450: 2.61 OD450

B5: hCDH6-6-H1L2 (antibody, V domains shown)
VH: EVQLVQSGAEVKKPGASVKVSCKASGYTFTDYYMAWVRQAPGQGLEWMGYIFPNSGGTDYSQKFKGRVTMTVDKSTSTVYMELSSLRSEDTAVYYCARELGADYGDYYAMDHWGQGTTVTVSS
VL: DIQMTQSPSSLSASVGDRVTITCRASENIDSYLAWYQQKPGKSPKLLVYSATLLADGVPSRFSGSGSGTDYTLTISSLQPEDFATYYCQHYYRTPPTFGQGTKLEIK
notes: Humanized
[4]
  EC50: 0.62 nM
  Max MFI: 14300 MFI
[5]
  Kd: 138 nM
  koff: 0.00607 s⁻¹
  kon: 44100 M⁻¹ s⁻¹
[6]
  EC50: 0.028 nM
  Max OD450: 2.07 OD450

B6: hCDH6-6-H1L1 (antibody, V domains shown)
VH: EVQLVQSGAEVKKPGASVKVSCKASGYTFTDYYMAWVRQAPGQGLEWMGYIFPNSGGTDYSQKFKGRVTMTVDKSTSTVYMELSSLRSEDTAVYYCARELGADYGDYYAMDHWGQGTTVTVSS
VL: DIQMTQSPSSLSASVGDRVTITCRASENIDSYLAWYQQKPGKSPKLLLYSATLLADGVPSRFSGSGSGTDYTLTISSLQPEDFATYYCQHYYRTPPTFGQGTKLEIK
notes: Humanized
[4]
  EC50: 0.62 nM
  Max MFI: 13700 MFI
[5]
  Kd: 192 nM
  koff: 0.00743 s⁻¹
  kon: 38600 M⁻¹ s⁻¹
[6]
  EC50: 0.037 nM
  Max OD450: 2.08 OD450
